Laboratory results published in paper PMC6851316, “The C-terminal dimerization domain of the respiratory mucin MUC5B functions in mucin stability and intracellular packaging before secretion” (The Journal of Biological Chemistry, 2019).
Blank lines part the entries; values can stand above or below the molecule they belong to.

Experiments:
[1] = biological target: MUC5B C-terminal construct consisting of D4-B-C-CK (CT5B) (human) (UniProt Q9HC84); test: SEC-MALS; CT5B incubated overnight at 4 °C in 5 mM CaCl2 or 5 mM EGTA, 150 mM NaCl, 25 mM HEPES pH 7.4 or 25 mM MES pH 6 or 5; Superose 6 10/300 GL at room temperature; tests the step dimer to higher multimers
[2] = biological target: MUC5B C-terminal construct consisting of D4-B-C-CK (CT5B) (human) (UniProt Q9HC84); test: AUC; sedimentation velocity; CT5B with 5 mM CaCl2 overnight at 4 °C, 150 mM NaCl, 25 mM HEPES pH 7.4 or 25 mM MES pH 6 or pH 5; tests the step dimer to higher multimers
[3] = biological target: MUC5B C-terminal construct consisting of D4-B-C-CK (CT5B) (human) (UniProt Q9HC84); test: SEC-MALS; recombinant CT5B on Superose 6 10/300 GL, 0.2 M NaCl, pH 7.4; step: monomer to disulfide-linked dimer
[4] = biological target: T1, MUC5B C-terminal construct consisting of D4-B-C-CK (CT5B) (human, UniProt Q9HC84 4955-5762); test: SPR; single cycle kinetics, pH 6; CT5B immobilised on CM5 chip, NT5B 0, 5, 10, 15, 20 and 40 nM, HBS with 5 mM CaCl2 and 0.05% Tween 20; 1:1 Langmuir model; settings: both partners purified
T1 construct: MUC5B, human, UniProtKB Q9HC84, D4-B-C-CK domains, residues 4955-5762; Mainly a disulfide-linked dimer with a small proportion of monomer; The dimer was used for cryo-EM, SPR (amine-coupled to a CM5 chip) and the homotypic tests; also called C-terminal dimerization domain of MUC5B; dimeric CT5B
T1 sequence (looked up): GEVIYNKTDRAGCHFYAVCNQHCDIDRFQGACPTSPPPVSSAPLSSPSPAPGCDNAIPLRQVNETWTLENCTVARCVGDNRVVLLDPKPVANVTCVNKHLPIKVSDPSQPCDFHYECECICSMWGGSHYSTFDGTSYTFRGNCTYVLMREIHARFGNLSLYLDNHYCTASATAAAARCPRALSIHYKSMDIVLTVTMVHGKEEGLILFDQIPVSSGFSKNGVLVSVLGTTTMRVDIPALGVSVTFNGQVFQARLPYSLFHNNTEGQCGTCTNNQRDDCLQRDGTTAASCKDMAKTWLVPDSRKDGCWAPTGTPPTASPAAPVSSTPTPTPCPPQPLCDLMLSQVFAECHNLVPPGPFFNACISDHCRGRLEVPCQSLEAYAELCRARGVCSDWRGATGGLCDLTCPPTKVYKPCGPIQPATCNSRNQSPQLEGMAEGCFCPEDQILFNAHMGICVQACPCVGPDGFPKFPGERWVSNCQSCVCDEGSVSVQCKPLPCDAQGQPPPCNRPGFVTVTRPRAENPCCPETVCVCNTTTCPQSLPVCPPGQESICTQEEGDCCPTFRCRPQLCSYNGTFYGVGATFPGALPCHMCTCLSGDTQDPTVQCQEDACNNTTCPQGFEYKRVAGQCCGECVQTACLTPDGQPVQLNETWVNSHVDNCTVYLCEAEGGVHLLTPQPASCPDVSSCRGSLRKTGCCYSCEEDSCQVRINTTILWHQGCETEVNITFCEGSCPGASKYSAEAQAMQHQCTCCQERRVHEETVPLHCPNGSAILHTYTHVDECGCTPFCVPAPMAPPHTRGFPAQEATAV

[5] = biological target: T1, MUC5B C-terminal construct consisting …; test: SPR; single cycle kinetics, pH 7.4; CT5B immobilised on CM5 chip, NT5B 0, 5, 10, 15, 20 and 40 nM, HBS with 5 mM CaCl2 and 0.05% Tween 20; 1:1 Langmuir model; settings: both partners purified
[6] = biological target: T1, MUC5B C-terminal construct consisting …; test: MST; pH 7.4; 2.5 nM RED-NHS labelled NT5B, CT5B serially diluted 1:1 (starting concentration 6 μM); 25 mM HEPES, 150 mM NaCl, 0.05% Tween 20, with 5 mM CaCl2 or 5 mM EGTA; room temperature; KD model; settings: both partners purified
[7] = biological target: T1, MUC5B C-terminal construct consisting …; test: MST; pH 6; 2.5 nM RED-NHS labelled NT5B, CT5B serially diluted 1:1 (starting concentration 6 μM); 25 mM HEPES, 150 mM NaCl, 0.05% Tween 20, with 5 mM CaCl2 or 5 mM EGTA; room temperature; KD model; settings: both partners purified

stoichiometry N [1]: 2 | stoichiometry N [2]: 2 | stoichiometry N [3]: 2
Molecule: MUC5B C-terminal construct consisting of D4-B-C-CK (CT5B) (from UniProt Q9HC84 4955-5762) (domain or fragment)

Kd [4]: ~1 nM | Kd [5]: ~3 nM | binding response, fold lower than at pH 6 [5]: 5 fold | Kd [6]: 7.4 ± 1.5 nM | Kd [7]: 3 ± 1.4 nM
B1: MUC5B N-terminal construct consisting of D1-D2-D′-D3 (NT5B) (domain or fragment)
chain: QGPVEPSWENAGHTMDGGAPTSSPTRRVSFVPPVTVFPSLSPLNPAHNGRVCSTWGDFHYKTFDGDVFRFPGLCNYVFSEHCRAAYEDFNVQLRRGLVGSRPVVTRVVIKAQGLVLEASNGSVLINGQREELPYSRTGLLVEQSGDYIKVSIRLVLTFLWNGEDSALLELDPKYANQTCGLCGDFNGLPAFNEFYAHNARLTPLQFGNLQKLDGPTEQCPDPLPLPAGNCTDEEGICHRTLLGPAFAECHALVDSTAYLAACAQDLCRCPTCPCATFVEYSRQCAHAGGQPRNWRCPELCPRTCPLNMQHQECGSPCTDTCSNPQRAQLCEDHCVDGCFCPPGTVLDDITHSGCLPLGQCPCTHGGRTYSPGTSFNTTCSSCTCSGGLWQCQDLPCPGTCSVQGGAHISTYDEKLYDLHGDCSYVLSKKCADSSFTVLAELRKCGLTDNENCLKAVTLSLDGGDTAIRVQADGGVFLNSIYTQLPLSAANITLFTPSSFFIVVQTGLGLQLLVQLVPLMQVFVRLDPAHQGQMCGLCGNFNQNQADDFTALSGVVEATGAAFANTWKAQAACANARNSFEDPCSLSVENENYARHWCSRLTDPNSAFSRCHSIINPKPFHSNCMFDTCNCERSEDCLCAALSSYVHACAAKGVQLSDWRDGVCTKYMQNCPKSQRYAYVVDACQPTCRGLSEADVTCSVSFVPVDGCTCPAGTFLNDAGACVPAQECPCYAHGTVLAPGEVVHDEGAVCSCTGGKLSCLGASLQKSTGCAAPMVYLDCSNSSAGTPGAECLRSCHTLDVGCFSTHCVSGCVCPPGLVSDGSGGCIAEEDCPCVHNEATYKPGETIRVDCNTCTCRNRRWECSHRLCLGTCVAYGDGHFITFDGDRYSFEGSCEYILAQDYCGDNTTHGTFRIVTENIPCGTTGTTCSKAIKLFVESYELILQEGTFKAVARGPGGDPPYKIRYMGIFLVIETHGMAVSWDRKTSVFIRLHQDYKGRVCGLCGNFDDNAINDFATRSRSVVGDALEFGNSWKLSPSCPDALAPKDPCTANPFRKSWAQKQCSILHGPTFAACRSQVDSTKYYEACVNDACACDSGGDCECFCTAVAAYAQACHDAGLCVSWRTPDTCPLFCDFYNPHGGCEWHYQPCGAPCLKTCRNPSGHCLVDLPGLEGCYPKCPPSQPFFNEDQMKCVAQCGCYDKDGNYYDVGARVPTAENCQSCNCTPSGIQCA
modifications: RED-NHS (amine reactive) fluorescent dye, in the MST experiments only
